# Reference: patent US20240141072A1 (published 2024)
# Legend:
# [1] = target: DH15 anti-DLL3 trispecific protein; assay: Octet BLI, DLL3-Fc on anti-human Fc tips, single 50 nM
# Protocol: (§1) Using conditioned media containing known concentrations of anti-DLL3 trispecific proteins, the binding affinities of the anti-DLL3 trispecific proteins toward human and cynomolgus monkey DLL3 proteins were measured, using a method where the DLL3 proteins were expressed as human IgG1-Fc fusions and the measurements were carried out using an Octet instrument with anti-human Fc tips.
# [2] = target: DH70 anti-DLL3 trispecific protein; assay: as above
# Protocol: as §1
# [3] = target: DH92 anti-DLL3 trispecific protein; assay: as above
# Protocol: as §1
# [4] = target: DH2 anti-DLL3 trispecific protein; assay: as above
# Protocol: as §1
# [5] = target: DH3 anti-DLL3 trispecific protein; assay: as above
# Protocol: as §1
# [6] = target: DH82 anti-DLL3 trispecific protein; assay: as above
# Protocol: as §1
# [7] = target: DH12 anti-DLL3 trispecific protein; assay: as above
# Protocol: as §1
# [8] = target: DH61 anti-DLL3 trispecific protein; assay: as above
# Protocol: as §1
# [9] = target: DH51 anti-DLL3 trispecific protein; assay: as above
# Protocol: as §1
# [10] = target: DH23 anti-DLL3 trispecific protein; assay: as above
# Protocol: as §1
# [11] = target: DH10 anti-DLL3 trispecific protein; assay: as above
# Protocol: as §1
# [12] = target: DH89 anti-DLL3 trispecific protein; assay: as above
# Protocol: as §1
# [13] = target: DH69 anti-DLL3 trispecific protein; assay: as above
# Protocol: as §1
# [14] = target: DH18 anti-DLL3 trispecific protein; assay: as above
# Protocol: as §1
# [15] = target: DH27 anti-DLL3 trispecific protein; assay: as above
# Protocol: as §1
# [16] = target: DH67 anti-DLL3 trispecific protein; assay: as above
# Protocol: as §1
# [17] = target: DH83 anti-DLL3 trispecific protein; assay: as above
# Protocol: as §1
# [18] = target: DH54 anti-DLL3 trispecific protein; assay: as above
# Protocol: as §1
# [19] = target: DH45 anti-DLL3 trispecific protein; assay: as above
# Protocol: as §1
# [20] = target: DH38 anti-DLL3 trispecific protein; assay: as above
# Protocol: as §1
# [21] = target: DH29 anti-DLL3 trispecific protein; assay: as above
# Protocol: as §1
# [22] = target: DH17 anti-DLL3 trispecific protein; assay: as above
# Protocol: as §1
# [23] = target: DH80 anti-DLL3 trispecific protein; assay: as above
# Protocol: as §1
# [24] = target: DH1 anti-DLL3 trispecific protein; assay: as above
# Protocol: as §1
# [25] = target: DH42 anti-DLL3 trispecific protein; assay: as above
# Protocol: as §1
# [26] = target: DH58 anti-DLL3 trispecific protein; assay: as above
# Protocol: as §1
# [27] = target: DH43 anti-DLL3 trispecific protein; assay: as above
# Protocol: as §1
# [28] = target: DH11 anti-DLL3 trispecific protein; assay: as above
# Protocol: as §1
# [29] = target: DH6 anti-DLL3 trispecific protein; assay: as above
# Protocol: as §1
# [30] = target: DH56 anti-DLL3 trispecific protein; assay: as above
# Protocol: as §1
# [31] = target: DH22 anti-DLL3 trispecific protein; assay: as above
# Protocol: as §1
# [32] = target: DH5 anti-DLL3 trispecific protein; assay: as above
# Protocol: as §1
# [33] = target: DH94 anti-DLL3 trispecific protein; assay: as above
# Protocol: as §1
# [34] = target: DH84 anti-DLL3 trispecific protein; assay: as above
# Protocol: as §1
# [35] = target: DH3 anti-DLL3 trispecific protein; assay: Octet BLI, single 50 nM
# Protocol: as §1
# [36] = target: T1, 52C4 anti-DLL3 trispecific protein (CHO expressed, purified) (biotinylated); assay: Octet BLI, biotinylated trispecific on streptavidin tips
# T1 construct: also called 52C04
# [37] = target: DH43 anti-DLL3 trispecific protein; assay: Octet BLI, 60/20/6.67/2.22 nM
# Protocol: (§2) Using the conditioned medium with known concentrations of the anti-DLL3 trispecific proteins, the binding affinities of the anti-DLL3 trispecific proteins toward human DLL3 protein were measured using a method where biotinylated version of human DLL3 protein were expressed as a human IgG1 fusion protein, and the binding affinity measurement was carried out in an Octet instrument with streptavidin tips.
# [38] = target: DH6 anti-DLL3 trispecific protein; assay: Octet BLI, 60/20/6.67/2.22 nM
# Protocol: as §2
# [39] = target: 53A05 anti-DLL3 trispecific protein; assay: Octet BLI, streptavidin tips, single 50 nM
# Protocol: as §2, with “proteins, the relative binding affinities” for “proteins, the binding affinities”
# [40] = target: 41D07 anti-DLL3 trispecific protein; assay: Octet BLI, streptavidin tips, single 50 nM
# Protocol: as §2, with “proteins, the relative binding affinities” for “proteins, the binding affinities”
# [41] = target: DH43 anti-DLL3 trispecific protein; assay: Octet BLI, single 50 nM, four samples of conditioned medium
# Protocol: as §2
# [42] = target: DH6 anti-DLL3 trispecific protein; assay: as above
# Protocol: as §2
# DH6 anti-DLL3 trispecific protein, sequence (chain, as listed by the source): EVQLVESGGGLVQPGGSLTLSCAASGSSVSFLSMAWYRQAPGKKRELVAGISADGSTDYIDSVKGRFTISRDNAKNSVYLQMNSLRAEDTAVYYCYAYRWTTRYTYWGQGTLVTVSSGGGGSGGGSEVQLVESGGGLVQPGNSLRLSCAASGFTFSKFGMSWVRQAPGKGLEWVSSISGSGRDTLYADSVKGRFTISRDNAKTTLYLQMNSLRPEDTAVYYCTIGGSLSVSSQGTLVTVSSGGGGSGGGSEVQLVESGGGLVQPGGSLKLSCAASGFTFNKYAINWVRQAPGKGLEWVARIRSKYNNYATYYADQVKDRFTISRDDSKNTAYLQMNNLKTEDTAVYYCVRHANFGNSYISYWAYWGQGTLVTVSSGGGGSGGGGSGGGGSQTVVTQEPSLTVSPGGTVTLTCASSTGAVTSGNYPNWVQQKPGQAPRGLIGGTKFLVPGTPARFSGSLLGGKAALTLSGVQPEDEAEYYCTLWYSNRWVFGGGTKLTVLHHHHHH
# DH3 anti-DLL3 trispecific protein, sequence (chain, as listed by the source): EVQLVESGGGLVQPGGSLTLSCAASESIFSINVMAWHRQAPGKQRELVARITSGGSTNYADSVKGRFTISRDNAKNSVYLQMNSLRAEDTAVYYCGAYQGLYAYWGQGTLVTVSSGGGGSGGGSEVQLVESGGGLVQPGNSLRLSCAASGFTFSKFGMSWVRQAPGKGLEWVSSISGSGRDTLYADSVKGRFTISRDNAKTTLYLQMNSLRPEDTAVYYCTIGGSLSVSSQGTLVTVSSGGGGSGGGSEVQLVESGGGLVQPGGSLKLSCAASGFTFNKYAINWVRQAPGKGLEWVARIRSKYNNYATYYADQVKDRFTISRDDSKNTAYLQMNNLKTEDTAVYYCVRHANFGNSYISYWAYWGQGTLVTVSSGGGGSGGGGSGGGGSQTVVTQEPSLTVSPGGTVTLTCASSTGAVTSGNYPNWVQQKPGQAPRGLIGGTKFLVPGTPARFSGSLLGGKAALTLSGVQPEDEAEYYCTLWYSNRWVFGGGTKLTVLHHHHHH
# DH43 anti-DLL3 trispecific protein, sequence (chain, as listed by the source): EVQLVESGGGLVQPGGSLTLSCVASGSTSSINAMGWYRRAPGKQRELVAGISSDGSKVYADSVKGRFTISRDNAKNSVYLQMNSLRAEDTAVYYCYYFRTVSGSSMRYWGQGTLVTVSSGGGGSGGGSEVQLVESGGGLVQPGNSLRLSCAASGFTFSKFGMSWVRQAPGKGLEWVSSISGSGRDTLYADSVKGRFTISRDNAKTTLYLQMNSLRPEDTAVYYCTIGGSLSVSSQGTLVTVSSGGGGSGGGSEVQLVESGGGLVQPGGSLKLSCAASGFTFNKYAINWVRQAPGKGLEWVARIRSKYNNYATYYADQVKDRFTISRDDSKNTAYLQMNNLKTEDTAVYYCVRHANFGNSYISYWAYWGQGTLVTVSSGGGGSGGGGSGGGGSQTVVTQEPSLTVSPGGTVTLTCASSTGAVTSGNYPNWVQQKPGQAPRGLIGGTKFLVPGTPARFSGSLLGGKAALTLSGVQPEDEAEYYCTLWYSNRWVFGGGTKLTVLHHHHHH
# DH29 anti-DLL3 trispecific protein, sequence (chain, as listed by the source): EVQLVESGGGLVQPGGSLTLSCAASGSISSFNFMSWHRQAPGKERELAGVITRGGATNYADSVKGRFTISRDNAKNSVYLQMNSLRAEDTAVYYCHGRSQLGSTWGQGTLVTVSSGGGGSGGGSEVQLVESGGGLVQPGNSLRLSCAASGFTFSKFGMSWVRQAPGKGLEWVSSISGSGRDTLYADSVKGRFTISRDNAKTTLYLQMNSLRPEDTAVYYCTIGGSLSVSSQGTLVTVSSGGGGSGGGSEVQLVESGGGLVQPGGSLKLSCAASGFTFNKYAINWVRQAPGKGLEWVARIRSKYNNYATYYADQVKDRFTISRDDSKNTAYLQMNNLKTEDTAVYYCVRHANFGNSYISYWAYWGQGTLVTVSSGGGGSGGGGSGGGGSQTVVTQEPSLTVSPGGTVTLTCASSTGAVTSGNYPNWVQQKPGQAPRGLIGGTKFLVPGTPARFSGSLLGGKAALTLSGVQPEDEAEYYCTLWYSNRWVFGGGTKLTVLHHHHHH
# DH27 anti-DLL3 trispecific protein, sequence (chain, as listed by the source): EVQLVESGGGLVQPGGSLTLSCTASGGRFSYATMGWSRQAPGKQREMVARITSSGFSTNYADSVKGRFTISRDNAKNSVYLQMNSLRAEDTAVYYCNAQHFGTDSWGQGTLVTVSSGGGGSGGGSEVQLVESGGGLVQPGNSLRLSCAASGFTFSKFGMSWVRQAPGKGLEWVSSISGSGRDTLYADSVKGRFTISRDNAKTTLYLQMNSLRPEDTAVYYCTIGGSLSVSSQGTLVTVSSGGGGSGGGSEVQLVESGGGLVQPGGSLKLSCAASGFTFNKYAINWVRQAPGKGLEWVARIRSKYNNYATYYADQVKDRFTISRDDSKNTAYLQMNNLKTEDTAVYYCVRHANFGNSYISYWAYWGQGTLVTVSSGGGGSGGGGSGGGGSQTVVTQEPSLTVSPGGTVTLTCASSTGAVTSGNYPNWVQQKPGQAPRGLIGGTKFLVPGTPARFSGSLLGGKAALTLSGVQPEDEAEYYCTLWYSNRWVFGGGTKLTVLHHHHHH
# DH54 anti-DLL3 trispecific protein, sequence (chain, as listed by the source): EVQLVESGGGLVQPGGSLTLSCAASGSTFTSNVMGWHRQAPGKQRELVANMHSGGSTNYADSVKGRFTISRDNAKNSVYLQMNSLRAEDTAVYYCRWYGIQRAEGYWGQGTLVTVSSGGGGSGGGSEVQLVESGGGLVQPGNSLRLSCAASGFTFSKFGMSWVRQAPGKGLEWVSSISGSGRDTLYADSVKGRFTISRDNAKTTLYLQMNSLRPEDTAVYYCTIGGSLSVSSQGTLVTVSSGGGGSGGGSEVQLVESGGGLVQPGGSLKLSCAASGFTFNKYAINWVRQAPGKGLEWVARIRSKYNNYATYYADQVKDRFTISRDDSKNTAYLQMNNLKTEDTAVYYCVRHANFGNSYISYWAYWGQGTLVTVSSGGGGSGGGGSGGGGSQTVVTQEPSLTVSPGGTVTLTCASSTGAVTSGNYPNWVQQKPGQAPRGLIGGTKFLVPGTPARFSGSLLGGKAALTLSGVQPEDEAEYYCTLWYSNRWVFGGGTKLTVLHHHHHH
# DH18 anti-DLL3 trispecific protein, sequence (chain, as listed by the source): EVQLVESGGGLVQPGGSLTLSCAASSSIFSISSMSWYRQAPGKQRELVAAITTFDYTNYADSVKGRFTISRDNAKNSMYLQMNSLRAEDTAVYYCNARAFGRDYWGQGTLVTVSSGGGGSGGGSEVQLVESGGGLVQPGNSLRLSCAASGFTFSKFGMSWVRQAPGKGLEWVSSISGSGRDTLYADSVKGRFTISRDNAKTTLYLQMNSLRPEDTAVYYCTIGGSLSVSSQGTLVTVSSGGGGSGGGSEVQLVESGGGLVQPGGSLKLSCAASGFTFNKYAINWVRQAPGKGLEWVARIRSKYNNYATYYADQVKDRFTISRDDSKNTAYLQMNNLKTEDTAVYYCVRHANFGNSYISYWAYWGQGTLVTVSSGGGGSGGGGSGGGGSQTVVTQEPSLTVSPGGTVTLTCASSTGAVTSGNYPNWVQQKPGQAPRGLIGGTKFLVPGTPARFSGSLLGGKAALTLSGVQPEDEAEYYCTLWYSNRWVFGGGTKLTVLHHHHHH
# DH10 anti-DLL3 trispecific protein, sequence (chain, as listed by the source): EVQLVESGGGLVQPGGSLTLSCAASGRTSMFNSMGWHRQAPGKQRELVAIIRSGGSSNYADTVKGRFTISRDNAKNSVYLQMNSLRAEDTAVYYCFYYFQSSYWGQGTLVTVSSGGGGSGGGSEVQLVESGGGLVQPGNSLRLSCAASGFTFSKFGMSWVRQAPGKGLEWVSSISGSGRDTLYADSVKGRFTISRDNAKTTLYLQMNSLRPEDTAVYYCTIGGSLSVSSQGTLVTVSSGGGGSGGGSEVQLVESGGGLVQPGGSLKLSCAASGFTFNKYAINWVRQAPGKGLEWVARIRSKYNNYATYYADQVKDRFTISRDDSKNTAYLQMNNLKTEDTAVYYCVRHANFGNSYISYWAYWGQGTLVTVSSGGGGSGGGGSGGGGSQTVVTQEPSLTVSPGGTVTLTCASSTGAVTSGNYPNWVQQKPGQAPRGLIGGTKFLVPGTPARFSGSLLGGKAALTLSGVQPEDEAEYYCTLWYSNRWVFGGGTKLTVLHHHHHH
# DH89 anti-DLL3 trispecific protein, sequence (chain, as listed by the source): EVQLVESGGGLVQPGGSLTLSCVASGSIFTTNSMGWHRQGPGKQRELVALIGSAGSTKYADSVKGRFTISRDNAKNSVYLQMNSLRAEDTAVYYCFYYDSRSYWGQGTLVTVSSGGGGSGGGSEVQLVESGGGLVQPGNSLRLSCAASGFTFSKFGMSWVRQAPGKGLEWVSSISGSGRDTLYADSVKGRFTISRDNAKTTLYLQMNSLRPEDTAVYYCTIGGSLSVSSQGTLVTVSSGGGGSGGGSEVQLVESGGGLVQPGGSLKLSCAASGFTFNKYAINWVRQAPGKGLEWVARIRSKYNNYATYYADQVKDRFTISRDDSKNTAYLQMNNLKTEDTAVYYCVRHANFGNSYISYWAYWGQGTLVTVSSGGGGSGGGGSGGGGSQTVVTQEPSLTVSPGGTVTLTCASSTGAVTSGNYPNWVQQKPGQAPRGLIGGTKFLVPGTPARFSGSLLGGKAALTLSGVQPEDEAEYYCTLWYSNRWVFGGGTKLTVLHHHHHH
Kd [2],Kd [3],Kd [4],Kd [8],Kd [9],Kd [11],Kd [13],Kd [14],Kd [15],Kd [16],Kd [18],Kd [19],Kd [23],Kd [24],Kd [25],Kd [26],Kd [27],Kd [28],Kd [29],Kd [30],Binder,further results
16.2 nM,18 nM,6.5 nM,10.6 nM,5.1 nM,3.9 nM,1.2 nM,1 nM,2.1 nM,8.4 nM,20.6 nM,1.9 nM,0.8 nM,3.5 nM,4.3 nM,3.3 nM,4.3 nM,5.3 nM,6.1 nM,8.1 nM,"human DLL3 protein expressed as human IgG1-Fc fusion (Fc fusion, also called huDLL3; not shown: human IgG1 Fc) AGVFELQIHSFGPGPGPGAPRSPCSARLPCRLFFRVCLKPGLSEEAAESPCALGAALSARGPVYTEQPGAPAPDLPLPDGLLQVPFRDAWPGTFSFIIETWREELGDQIGGPAWSLLARVAGRRRLAAGGPWARDIQRAGAWELRFSYRARCEPPAVGTACTRLCRPRSAPSRCGPGLRPCAPLEDECEAPLVCRAGCSPEHGFCEQPGECRCLEGWTGPLCTVPVSTSSCLSPRGPSSATTGCLVPGPGPCDGNPCANGGSCSETPRSFECTCPRGFYGLRCEVSGVTCADGPCFNGGLCVGGADPDSAYICHCPPGFQGSNCEKRVDRCSLQPCRNGGLCLDLGHALRCRCRAGFAGPRCEHDLDDCAGRACANGGTCVEGGGAHRCSCALGFGGRDCRERADPCAARPCAHGGRCYAHFSGLVCACAPGYMGARCEFPVHPDGASALPAAPPGLRPGDPQRYL",Kd [1]: 17.4 nM; Kd [5]: 41.9 nM; Kd [6]: 6.6 nM; Kd [7]: 1.3 nM; Kd [10]: 9.9 nM; Kd [12]: 6.9 nM; Kd [17]: 4.7 nM; Kd [20]: 11.9 nM; Kd [21]: 5.6 nM; Kd [22]: 7 nM; Kd [31]: 6.8 nM; Kd [32]: 0.5 nM; Kd [33]: 2.6 nM; Kd [34]: 15.2 nM; Kd [35]: 42 nM
86.2 nM,17.5 nM,14.6 nM,30.8 nM,18.2 nM,25 nM,7 nM,5.9 nM,11.3 nM,8.2 nM,42.4 nM,2.8 nM,5.5 nM,10.7 nM,11.7 nM,27.9 nM,5.5 nM,5.6 nM,6.8 nM,8 nM,"cynomolgus monkey DLL3 protein expressed as human IgG1-Fc fusion (Fc fusion, Macaca fascicularis, also called cyDLL3; not shown: human IgG1 Fc) AGVFELQIHSFGPGPGGAPRSPYSARGPCRLFFRVCLKPGLSEEAAESPCALGAALSARGPVYTEQPEAPAPDLPLPNGLLQVPFRDAWPGTFSLIIETWREELGDQIGGPAWSLLARVTRRRRLAAGGPWAGDIQRAGAWELRFSYRARCELPAVGTACTRLCRPRSASRCGPGLRPCAPLEDECEAPPVCRAGCSLEHGFCEQPGECRCLEGWTGPLCMVPVSTSSCLGLRGPSSTTTGCLVPGPGPCDGNPCANGGSCSETPGSFECTCPRGFYGLRCEVSGVTCADGPCFNGGLCVGGADPDSAYICHCPPGFQGSNCEKRVDRCSLQPCRNGGLCLDLGHALRCRCRAGFAGPRCEHDLNDCAGRACANGGTCVEGGGAHRCSCALGFGGRDCRERADPCAARPCAHGGRCYAHFSGLVCACAPGYMGARCEFPVHPDGVSALPAAPPGLRPGDPQRYP",binding result [1]: no binding (tested: 50 nM); binding result [5]: no binding (tested: 50 nM); binding result [6]: no binding (tested: 50 nM); binding result [7]: no binding (tested: 50 nM); binding result [10]: no binding (tested: 50 nM); binding result [12]: no binding (tested: 50 nM); binding result [17]: no binding (tested: 50 nM); binding result [20]: no binding (tested: 50 nM); binding result [21]: no binding (tested: 50 nM); binding result [22]: no binding (tested: 50 nM); Kd [31]: 16.4 nM; Kd [32]: 5.5 nM; Kd [33]: 9.6 nM; Kd [34]: 17.9 nM

# Second part, the binder before the results:
Binder,Kd [2],Kd [3],Kd [4],Kd [8],Kd [9],Kd [11],Kd [13],Kd [14],Kd [15],Kd [16],Kd [18],Kd [19],Kd [23],Kd [24],Kd [25],Kd [26],Kd [27],Kd [28],Kd [29],Kd [30],further results
"human DLL3 (Example 6) (ligand, also called huDLL3) AGVFELQIHSFGPGPGPGAPRSPCSARLPCRLFFRVCLKPGLSEEAAESPCALGAALSARGPVYTEQPGAPAPDLPLPDGLLQVPFRDAWPGTFSFIIETWREELGDQIGGPAWSLLARVAGRRRLAAGGPWARDIQRAGAWELRFSYRARCEPPAVGTACTRLCRPRSAPSRCGPGLRPCAPLEDECEAPLVCRAGCSPEHGFCEQPGECRCLEGWTGPLCTVPVSTSSCLSPRGPSSATTGCLVPGPGPCDGNPCANGGSCSETPRSFECTCPRGFYGLRCEVSGVTCADGPCFNGGLCVGGADPDSAYICHCPPGFQGSNCEKRVDRCSLQPCRNGGLCLDLGHALRCRCRAGFAGPRCEHDLDDCAGRACANGGTCVEGGGAHRCSCALGFGGRDCRERADPCAARPCAHGGRCYAHFSGLVCACAPGYMGARCEFPVHPDGASALPAAPPGLRPGDPQRYL",,,,,,,,,,,,,,,,,,,,,Kd [36]: 2.2 nM
"biotinylated human DLL3 protein expressed as a human IgG1 fusion protein (Fc fusion, not shown: a dimerising Fc or GST, biotinylated) AGVFELQIHSFGPGPGPGAPRSPCSARLPCRLFFRVCLKPGLSEEAAESPCALGAALSARGPVYTEQPGAPAPDLPLPDGLLQVPFRDAWPGTFSFIIETWREELGDQIGGPAWSLLARVAGRRRLAAGGPWARDIQRAGAWELRFSYRARCEPPAVGTACTRLCRPRSAPSRCGPGLRPCAPLEDECEAPLVCRAGCSPEHGFCEQPGECRCLEGWTGPLCTVPVSTSSCLSPRGPSSATTGCLVPGPGPCDGNPCANGGSCSETPRSFECTCPRGFYGLRCEVSGVTCADGPCFNGGLCVGGADPDSAYICHCPPGFQGSNCEKRVDRCSLQPCRNGGLCLDLGHALRCRCRAGFAGPRCEHDLDDCAGRACANGGTCVEGGGAHRCSCALGFGGRDCRERADPCAARPCAHGGRCYAHFSGLVCACAPGYMGARCEFPVHPDGASALPAAPPGLRPGDPQRYL",,,,,,,,,,,,,,,,,,,,,Kd [37]: 8.9 nM; Kd [38]: 9 nM; Kd [39]: 0.3 nM; Kd [40]: 34 nM; Kd [41]: 7.7 nM; Kd [42]: 9.9 nM
